According to patent US20050037431A1:

Biological target: Met receptor on cells (A549, MDA-MB-435, BxPC3) (UniProt P08581)
Experiment: cell-based or functional assay

Sequence of UniProt P08581 (P08581 25-1390 limits assumed): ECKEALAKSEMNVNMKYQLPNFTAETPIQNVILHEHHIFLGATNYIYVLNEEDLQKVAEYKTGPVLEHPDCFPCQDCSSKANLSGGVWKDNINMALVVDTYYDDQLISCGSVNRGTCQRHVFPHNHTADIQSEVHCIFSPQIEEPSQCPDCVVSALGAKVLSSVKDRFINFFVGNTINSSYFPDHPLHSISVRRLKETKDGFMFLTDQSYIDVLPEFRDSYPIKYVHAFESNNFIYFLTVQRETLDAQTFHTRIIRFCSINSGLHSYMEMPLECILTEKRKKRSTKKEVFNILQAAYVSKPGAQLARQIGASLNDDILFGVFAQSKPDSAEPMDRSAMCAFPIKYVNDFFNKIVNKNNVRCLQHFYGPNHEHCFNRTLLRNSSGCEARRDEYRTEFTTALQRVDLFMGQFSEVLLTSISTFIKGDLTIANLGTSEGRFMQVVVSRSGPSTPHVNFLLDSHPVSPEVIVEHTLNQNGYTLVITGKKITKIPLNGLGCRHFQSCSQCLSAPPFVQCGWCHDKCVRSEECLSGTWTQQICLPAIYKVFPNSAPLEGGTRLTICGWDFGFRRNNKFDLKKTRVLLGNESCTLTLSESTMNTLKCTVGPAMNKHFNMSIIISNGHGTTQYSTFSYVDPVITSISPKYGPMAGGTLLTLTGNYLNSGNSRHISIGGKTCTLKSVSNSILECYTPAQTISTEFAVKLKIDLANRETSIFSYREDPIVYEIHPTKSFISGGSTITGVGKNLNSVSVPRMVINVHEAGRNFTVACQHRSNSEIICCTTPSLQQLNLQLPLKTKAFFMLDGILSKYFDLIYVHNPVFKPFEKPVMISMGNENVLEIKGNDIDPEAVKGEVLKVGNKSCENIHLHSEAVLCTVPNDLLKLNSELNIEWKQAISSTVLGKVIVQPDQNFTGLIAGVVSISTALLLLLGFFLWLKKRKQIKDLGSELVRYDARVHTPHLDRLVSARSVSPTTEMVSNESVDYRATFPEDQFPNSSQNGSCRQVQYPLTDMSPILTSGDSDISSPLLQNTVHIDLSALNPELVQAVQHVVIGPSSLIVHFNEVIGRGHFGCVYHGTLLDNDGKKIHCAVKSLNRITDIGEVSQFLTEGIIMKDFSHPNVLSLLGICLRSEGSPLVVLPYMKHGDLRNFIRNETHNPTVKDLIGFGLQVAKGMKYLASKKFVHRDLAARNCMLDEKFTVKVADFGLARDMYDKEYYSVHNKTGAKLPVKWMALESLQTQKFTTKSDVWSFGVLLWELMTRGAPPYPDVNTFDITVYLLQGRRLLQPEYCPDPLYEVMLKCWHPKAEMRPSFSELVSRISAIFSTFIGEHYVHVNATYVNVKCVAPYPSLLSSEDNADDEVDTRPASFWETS

Substance: HGF R514A (two-chain full length HGF mutant) (from UniProt P14210 32-494; P14210 495-728) (ligand)
- migration of MDA-MB435 cells (transwell, 1 nM), percent of wildtype HGF (% of wildtype activity): 60 to 80

Substance: HGF Y619A (two-chain full length HGF mutant) (from UniProt P14210 32-494; P14210 495-728) (ligand)
- migration of MDA-MB435 cells (transwell, 1 nM), percent of wildtype HGF (% of wildtype activity): 60 to 80

Substance: HGF P537A (two-chain full length HGF mutant) (from UniProt P14210 32-494; P14210 495-728) (ligand)
- migration of MDA-MB435 cells (transwell, 1 nM), percent of wildtype HGF (% of wildtype activity): 60 to 80

Substance: HGF N701A (two-chain full length HGF mutant) (from UniProt P14210 32-494; P14210 495-728) (ligand)
- migration of MDA-MB435 cells (transwell, 1 nM), percent of wildtype HGF (% of wildtype activity): 60 to 80

Substance: HGF I699A (two-chain full length HGF mutant) (from UniProt P14210 32-494; P14210 495-728) (ligand)
- migration of MDA-MB435 cells (transwell, 1 nM), percent of wildtype HGF (% of wildtype activity): 60 to 80

Substance: HGF T620A (two-chain full length HGF mutant) (from UniProt P14210 32-494; P14210 495-728) (ligand)
- migration of MDA-MB435 cells (transwell, 1 nM), percent of wildtype HGF (% of wildtype activity): 60 to 80

Substance: HGF G621A (two-chain full length HGF mutant) (from UniProt P14210 32-494; P14210 495-728) (ligand)
- migration of MDA-MB435 cells (transwell, 1 nM), percent of wildtype HGF (% of wildtype activity): 60 to 80
